The values that follow come from PMC4554459, “Paracoccus denitrificans possesses two BioR homologs having a role in regulation of biotin metabolism”.

Data set [1] addresses T1, BioR2 (Paracoccus denitrificans PD1222, UniProt A1B662 1-221).
T1 sequence: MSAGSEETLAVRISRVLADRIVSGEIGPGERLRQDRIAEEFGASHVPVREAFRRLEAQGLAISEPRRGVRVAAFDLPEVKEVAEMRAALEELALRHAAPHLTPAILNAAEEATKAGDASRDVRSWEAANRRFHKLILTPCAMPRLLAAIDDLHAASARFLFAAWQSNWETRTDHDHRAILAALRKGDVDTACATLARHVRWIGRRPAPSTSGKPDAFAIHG
The data set is described as follows: EMSA; ~0.2 pmol DIG-labeled probe with BioR (10-20 pmol BioR2 in 15 uL, Fig. 6) in Roche binding buffer, 15 min, room temperature; native 7% PAGE; salt and pH of binding buffer not stated (protein in PBS pH 7.4, 10% glycerol). The settings on record: protein: recombinant; tags: 6xHis (pET28a); chain copies: 2; label: digoxigenin; blunt. (A gel shift assay detects complexes by their altered migration in electrophoresis.)

In data set [2] the target is T1, BioR2. Nature of the data set: EMSA; pimeloyl-ACP (no effect); ~0.2 pmol DIG-labeled probe with BioR (10-20 pmol BioR2 in 15 uL, Fig. 6) in Roche binding buffer, 15 min, room temperature; native 7% PAGE; salt and pH of binding buffer not stated (protein in PBS pH 7.4, 10% glycerol). The settings on record: protein: recombinant; tags: 6xHis (pET28a); chain copies: 2; label: digoxigenin; blunt.

In data set [3] the target is T1, BioR2. The data set is described as follows: competition; cold probe 10, 20, 50 pmol vs 0.2 pmol DIG-bioBFDAGC; ~0.2 pmol DIG-labeled probe with BioR (10-20 pmol BioR2 in 15 uL, Fig. 6) in Roche binding buffer, 15 min, room temperature; native 7% PAGE; salt and pH of binding buffer not stated (protein in PBS pH 7.4, 10% glycerol). The settings on record: protein: recombinant; tags: 6xHis (pET28a); chain copies: 2; blunt.

B1: bioBFDAZ_at (bioB_at) probe (dsDNA)
DNA 1: CTCTCTTGAGGAGGCAAAAATTATCTATAATTTGCCATTTAACGACCTGC
DNA 2: GCAGGTCGTTAAATGGCAAATTATAGATAATTTTTGCCTCCTCAAGAGAG
Turning to B1, in data set [1], the binding result is reported as “binds”.

B2: bioYB_pd2 probe (dsDNA)
DNA 1: CAAAGCCTTCGTAATTATAGATAGACTCGATACCTATC
DNA 2: GATAGGTATCGAGTCTATCTATAATTACGAAGGCTTTG
Take B2: the binding result in data set [1] is “binds”.

B3: bioBFDAGC_pd probe (dsDNA)
DNA 1: GGCGCTGACCGTTTTATAGATACTTCCACATGAGGC
DNA 2: GCCTCATGTGGAAGTATCTATAAAACGGTCAGCGCC
With B3, in data set [2], the binding result is on record as “binds”.

B4: cold bioBFDAGC_pd probe (dsDNA)
DNA 1: GGCGCTGACCGTTTTATAGATACTTCCACATGAGGC
DNA 2: GCCTCATGTGGAAGTATCTATAAAACGGTCAGCGCC
For the molecule B4, the binding result in data set [3] was “binds”.

B5: bioYB_pd1 probe (dsDNA)
DNA 1: GATTCCCGGATAATTATCTATAAACCTAATTGCCAG
DNA 2: CTGGCAATTAGGTTTATAGATAATTATCCGGGAATC
For B5, in data set [1], the binding result is given as “binds”.

B6: bioR1_pd probe (dsDNA)
DNA 1: GGTGCAGCATGAATTATCTATAATTCATGAAACACG
DNA 2: CGTGTTTCATGAATTATAGATAATTCATGCTGCACC
With B6, the binding result in data set [1] is reported as “binds”.
